Source: article PMC6688830, “A Ubiquitin-Binding Domain that Binds a Structural Fold Distinct from that of Ubiquitin” (Structure(London, England:1993), 2019)

Experiments:
Conditions in all cases: both partners purified
KAP1 S33-K434 L376A = biological target: T1, KAP1 S33-K434 L376A (human, UniProt Q13263 33-434, L376A); assay: co-IP; purified SMARCAD1 fragments (FLAG-CUE1,2, FLAG-CUE1) and KAP1 RBCC, 9.6μg each in 240μL, 4°C 1 hour; anti-FLAG M2 affinity gel 3 hours
T1 construct: KAP1 (TRIM28), human, UniProt Q13263, residues S33-K434 (RBCC domain); source: E. coli BL-21 CodonPlus (DE3)-RP, purified (Ni-NTA, Ulp1, Mono Q)

KAP1 S33-K434 V380A = biological target: T2, KAP1 S33-K434 V380A (human, UniProt Q13263 33-434, V380A); assay: as above
T2 construct: KAP1 (TRIM28), human, UniProt Q13263, residues S33-K434 (RBCC domain); source: E. coli BL-21 CodonPlus (DE3)-RP, purified (Ni-NTA, Ulp1, Mono Q)

KAP1 S33-K434 I379A = biological target: T3, KAP1 S33-K434 I379A (human, UniProt Q13263 33-434, I379A); assay: as above
T3 construct: KAP1 (TRIM28), human, UniProt Q13263, residues S33-K434 (RBCC domain); source: E. coli BL-21 CodonPlus (DE3)-RP, purified (Ni-NTA, Ulp1, Mono Q)

Ubiquitin = biological target: T4, Ubiquitin (UniProt P0CG48 1-76); assay: ITC; MicroCal ITC200, 10°C; 120 μM SMARCAD1 CUE1 or CUE1,2 in the cell, 9.8 mM mono-Ub in the syringe; 10 mM Tris-HCl pH 7.9, 100 mM NaCl, 5 mM β-ME; One set of sites model
T4 construct: ubiquitin, monomeric, the cut product of a ubiquitin precursor; also called mono-Ub; monomeric ubiquitin; source: bought: Boston Biochem (purified recombinant)

KAP1 S33-K434 = biological target: T5, KAP1 S33-K434 (human, UniProt Q13263 33-434); assay: ITC; MicroCal ITC200, 20°C; KAP1 RBCC (9-18 μM) in the cell, SMARCAD1 CUE1 or CUE1,2 (90-300 μM) in the syringe; 10 mM Tris-HCl pH 7.9, 100 mM NaCl, 5 mM β-ME; One set of sites model
T5 construct: KAP1 (TRIM28), human, UniProt Q13263, residues S33-K434 (RBCC domain); The crystal structures of shorter RBCC constructs show an antiparallel homodimer; also called KAP1 RBCC (S33-K434); KAP1 RBCC; source: E. coli BL-21 CodonPlus (DE3)-RP, purified (Ni-NTA, Ulp1, Mono Q)
T5 sequence (Q13263 33-434): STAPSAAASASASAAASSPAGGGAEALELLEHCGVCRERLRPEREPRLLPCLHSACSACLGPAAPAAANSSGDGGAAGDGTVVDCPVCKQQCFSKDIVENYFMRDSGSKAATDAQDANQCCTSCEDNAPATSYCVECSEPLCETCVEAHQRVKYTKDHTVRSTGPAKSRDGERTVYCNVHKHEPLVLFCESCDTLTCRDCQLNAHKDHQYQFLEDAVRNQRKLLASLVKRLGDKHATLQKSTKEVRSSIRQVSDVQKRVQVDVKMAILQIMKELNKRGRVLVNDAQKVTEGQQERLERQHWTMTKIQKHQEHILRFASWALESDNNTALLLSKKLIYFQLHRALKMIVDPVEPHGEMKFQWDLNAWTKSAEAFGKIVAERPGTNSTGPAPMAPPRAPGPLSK

T2 sequence (Q13263 33-434 V380A): as the sequence (Q13263 33-434) above, with V348A counted along it
T1 sequence (Q13263 33-434 L376A): as the sequence (Q13263 33-434) above, with L344A counted along it
T3 sequence (Q13263 33-434 I379A): as the sequence (Q13263 33-434) above, with I347A counted along it

binding result (KAP1 S33-K434 L376A): binds | binding result (KAP1 S33-K434 V380A): binds | binding result (KAP1 S33-K434 I379A): binds | Kd (Ubiquitin): ~389 µM | Kd (KAP1 S33-K434): ~0.21 µM
B1: FLAG-CUE1,2 (WT) (domain or fragment, human, UniProt Q9H4L7 95-347, looked up)
chain: SSDSEDVVSPNCSNTVQEKTFNKDTVIIVSEPSEDEESQGLPTMARRNDDISELEDLSELEDLKDAKLQTLKELFPQRSDNDLLKLIESTSTMDGAIAAALLMFGDAGGGPRKRKLSSSSEPYEEDEFNDDQSIKKTRLDHGEESNESAESSSNWEKQESIVLKLQKEFPNFDKQELREVLKEHEWMYTEALESLKVFAEDQDMQYVSQSEVPNGKEVSSRSQNYPKNATKTKLKQKFSMKAQNGFNKKRKKN
notes: SMARCAD1, human, UniProt Q9H4L7, residues S95-N347 (both CUE domains); also called SMARCAD1 CUE1,2 (S95-N347); wild-type CUE1,2; source: E. coli BL-21 CodonPlus (DE3)-RIL, purified (Ni-NTA, Ulp1, Mono Q if required)
